Assays:
[1] = tested on: platelets; experiment: flow cytometry of platelet surface receptor expression in AMI patients during first 24 hours after r-PA or t-PA; assay type: in vivo, human
Source text: Twenty-three consecutive patients admitted to the emergency rooms of St. Agnes Hospital, or the Union Memorial Hospital between July and December of 1996 with a diagnosis of acute myocardial infarction were included. All patients were enrolled in the randomized trial of Reteplase (r-PA) versus accelerated Alteplase (t-PA) for the treatment of acute myocardial infarction, (GUSTO-III trial).
Blood samples for PA, and for flow cytometric studies were taken at prespecified intervals as follows: in the emergency room immediately before administration of the thrombolytic therapy and then in the coronary care unit at 3 hours, 6 hours, 12 hours, and finally at 24 hours after initiation of the r-PA or t-PA therapy.
Thirteen patients randomized to r-PA received a double bolus, 10+10 MU thirty minutes apart. Ten patients received t-PA in the accelerated regimen as a 15 mg bolus, then 0.75 mg/kg over 30 minutes, and then 0.50 mg/kg over 60 minutes. During the baseline sampling every patient had received 325 mg of aspirin and each day thereafter, at least 5,000 U of intravenous heparin. Following the administration of thrombolytic therapy all patients received a continuous infusion of heparin for the first 24 hours following thrombolysis as recommended in the GUSTO-III protocol.
The schedule of blood drawing, sample preparation and processing were critical issues of the study design, and were monitored by an independent observer. The actual timing of blood collection for the baseline sample was 9.5±1.4 minutes before the start of thrombolytic therapy; 174.6±21.8 minutes for the 3 hours sample; 371.1±24.2 minutes for 6 hours sample; 709.4±17.8 minutes for 12 hours sample; and 1402.9±18.8 minutes for 24 hours sample. Samples were processed within one hour after blood drawing. […] The reasons for early termination were as follows: patient transfer for emergency coronary angioplasty (3 patients), and inability to obtain blood sample (1 patient). Twenty three baseline samples; twenty two samples collected at 3 hours; twenty samples collected at 6 hours; twenty samples collected at 12 hours; and nineteen samples collected at 24 hours were included in the study analysis.
For flow cytometric analysis, venous blood (8 ml) was collected in a plastic tube containing 2 ml of acid-citrate-dextrose (ACD) (7.3 g citric acid, 22.0 g sodium citrate ×2H2O and 24.5 glucose in 1000 ml distilled water) and mixed well. The blood-ACD mixture was centrifuged at 1000 r.p.m. for 10 minutes at room temperature. The upper ⅔ of the platelet-rich plasma (PRP) was then collected and adjusted to pH=6.5 by adding ACD. The PRP was then centrifuged at 3000 r.p.m. for 10 minutes. The supernatant was removed and the platelet pellet was gently resuspended in 4 cc of the washing buffer (10 mM Tris/HCl, 0.15 M NaCl, 20 mM EDTA, pH=7.4). Platelets were washed 4 times in the washing buffer, and an additional four times in TBS (10 mM Tris, 0.15 M NaCl, pH=7.4). All cells were then divided into ten plastic capped tubes. Nine portions of washed platelets were incubated with 5 μl fluorescein isothiocyanate (FITC)-conjugated antibodies in the dark at +4° C. for 30 minutes, and one part remained unstained and served as a negative control. Surface antigen expression was measured with monoclonal murine anti-human antibodies: CD9 (p24); CD41a (IIb/IIIa, (IIb(3); CD42b (Ib); CD61(IIIa) (DAKO Corporation, Carpinteria Calif.); CD49b (VLA-2, or (2(1); CD62p (P selectin); CD31 (PECAM-1); CD 41b (IIb); and CD51/CD61 (vitronectin receptor, (v(3) (PharMingen, San Diego Calif.). After incubation, the cells were washed three times with TBS and resuspended in 0.25 ml of 1% paraformaldehyde. Samples were stored in the refrigerator at +4° C., and analyzed on a Becton Dickinson FACScan™ flow cytometry with laser output of 15 mw, excitation at 488 mm, and emission detection at 530±30 nm. […]

[2] = "accelerated" regimen, GUSTO trial; cited from earlier work
[3] = tested on: platelets; experiment: PFA-100 platelet function analyzer, closure time; assay type: cell-based, human; settings: TNK 12 μg/mL, t-PA 4 μg/mL
Procedure: Blood samples for the in vitro study were obtained from 9 healthy volunteers. None of the subjects smoked or had hypertension, diabetes, or an abnormal hematocrit. None had received aspirin or any other antiplatelet drugs. All subjects underwent blood sampling after at least 30 minutes of rest and 2 or more hours of fasting. Blood was drawn from an antecubital vein between 8 am and 10 am in order to avoid any diurnal influence. A 21-gauge butterfly needle was used to draw blood into a tube containing 3.8% sodium citrate (1:9 volume); the first 1.5 mL of free running blood was discarded. One tube was kept as an internal control. A second tube was incubated with tenecteplase (TNK) for 30 minutes at room temperature in order to achieve a final concentration of 12 μg/mL. The third tube was similarly incubated with alteplase (t-PA) to achieve a concentration of 4 μg/mL. The concentrations of TNK and t-PA that were chosen approximated conventional plasma levels observed in patients receiving TNK and t-PA bolus (30 mg, and 15 mg, respectively; data on file, Genentech, Inc., South San Francisco, Calif.). Fresh solutions of TNK and t-PA were prepared in Dulbecco's phosphate buffered saline (DPBS) ex tempore on the morning of the platelet studies.
The PFA-100™ (Dade Behring, Deerfield, Ill.) is a high shear-inducing platelet function analyzer that simulates primary hemostasis after injury to a small vessel under flow conditions (see, e.g. Kundu, S. K. et al. (1996) Clin. Appl. Thromb. Hemost. 2:241-249). The device provides a constant negative pressure that aspirates a whole blood-citrate mixture, which comes into contact with a collagen-coated membrane and then passes through an aperture. The time required to obtain occlusion of the aperture is digitally recorded and is a measure of shear-induced platelet aggregation.
For all comparisons, statistical analyses were done by using repeated measures ANOVA. […] Normally distributed data were expressed as mean±SE, and skewed data as median (range). […]

B1: t-PA: recombinant tissue plasminogen activator, thrombolytic agent (Genentech) (protein, UniProt P00750 36-562, looked up)
Tissue-type plasminogen …: SYQVICRDEKTQMIYQQHQSWLRPVLRSNRVEYCWCNSGRAQCHSVPVKSCSEPRCFNGGTCQQALYFSDFVCQCPEGFAGKCCEIDTRATCYEDQGISYRGTWSTAESGAECTNWNSSALAQKPYSGRRPDAIRLGLGNHNYCRNPDRDSKPWCYVFKAGKYSSEFCSTPACSEGNSDCYFGNGSAYRGTHSLTESGASCLPWNSMILIGKVYTAQNPSAQALGLGKHNYCRNPDGDAKPWCHVLKNRRLTWEYCDVPSCSTCGLRQYSQPQFRIKGGLFADIASHPWQAAIFAKHRRSPGERFLCGGILISSCWILSAAHCFQERFPPHHLTVILGRTYRVVPGEEEQKFEVEKYIVHKEFDDDTYDNDIALLQLKSDSSRCAQESSVVRTVCLPPADLQLPDWTECELSGYGKHEALSPFYSERLKEAHVRLYPSSRCTSQHLLNRTVTDNMLCAGDTRSGGPQANLHDACQGDSGGPLVCLNDGRMTLVGIISWGLGCGQKDVPGVYTKVTNYLDWIRDNMRP
[1]; 12 hours
  glycoprotein IIIa expression compared to baseline: not after t-PA therapy
  glycoprotein Ib expression compared to baseline: significant inhibition
[1]; 12 hours after thrombolysis
  platelet vitronectin receptor expression: significant increase
[1]; 24 hours
  glycoprotein IIIa expression compared to baseline: not after t-PA therapy
  glycoprotein IIb/IIIa expression compared to baseline: elevated
  p24 (CD 9) expression compared to baseline: higher
[1]; 24 hours after thrombolysis
  platelet vitronectin receptor expression: trended toward the baseline
[1]; early
  P-selectin expression, early change: early significant decrease
[1]; early time points
  p24 (CD 9) expression compared to baseline: no early receptor inhibition
[1]; following the early decrease
  P-selectin expression, later change: significant increase
[2]
  benefit in mortality reduction: further benefit
[3]
  closure time (PFA-100) compared with DPBS: prolongation
